Source: the supplement of paper PMC6757056
± gives the standard deviation of the averaged measurements.

B1: library; a variant is named by its letters at N, in order (parent)
chain: GCUGUCACCGGUGUAUUACCCUAGUGGUCGACCGGUCUGAUGAGUCUNNNNNNAGACGAAACAGC

How the values were obtained:
hypoxanthine [1] = variants of: B1; test: FACS-Seq fitted mean relative fluorescence mCherry/BFP without ligand (log10 relative fluorescence); ligand: hypoxanthine (xanthine aptamer); higher = higher reporter protein expression; conditions: HEK293T, ligand present: no
Method in brief: (§1)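 Genomic DNA from 6 mCherry/BFP sort bins was PCR-amplified, barcoded and sequenced on MiSeq. The sorted cells were enriched HEK293T libraries, lentivirally transduced with a ribozyme-switch mCherry reporter and an EF1α-BFP marker, incubated with or without ligand for 48 h. Fluorescence derives from a normal fit to the bin counts. The fit was on log10(mCherry/BFP), and means were scaled to five spiked-in control ribozymes.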

hypoxanthine [2] = variants of: B1; test: normalized RNA/DNA level with ligand (relative to sTRSVctl = 100) (log10 (% of sTRSVctl)); ligand: hypoxanthine (xanthine aptamer); higher = less ribozyme self-cleavage, higher mRNA level; conditions: ligand concentration (+) RNA-Seq: 5 mM, HEK293T, reporter: mCherry (pCS4076), ligand present: yes
Method in brief: (§2)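 Library plasmids carrying ribozyme switches linked to mCherry, or to eGFP in some ligand experiments, were transfected into HEK293T at 4 µg per 6-well well, with any ligand added 1 h earlier. Seventy-two hours on, total RNA was extracted with EDTA and reverse-transcribed, amplified, barcoded and sequenced. RNA level was RNA over DNA reads normalized to a spiked-in non-cleaving sequence or to the top sequences, then scaled and log-transformed. The top set was 25 sequences, the transform was ×100 and log10, and sequences needed ≥100 DNA reads.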

hypoxanthine [3] = variants of: B1; test: normalized RNA/DNA level without ligand (relative to sTRSVctl = 100) (log10 (% of sTRSVctl)); ligand: hypoxanthine (xanthine aptamer); higher = less ribozyme self-cleavage, higher mRNA level; conditions: HEK293T, reporter: mCherry (pCS4076), ligand present: no
Method in brief: as §2

hypoxanthine [4] = variants of: B1; test: FACS-Seq fitted mean relative fluorescence mCherry/BFP with ligand (log10 relative fluorescence); ligand: hypoxanthine (xanthine aptamer); ligand concentration (+) FACS-Seq: 5 mM; higher = higher reporter protein expression; conditions: HEK293T, ligand present: yes
Method in brief: as §1

Variant	FACS-Seq fitted mean (log10) (hypoxanthine [1])	normalized RNA/DNA level with ligand (log10) (hypoxanthine [2])	normalized RNA/DNA level without ligand (log10) (hypoxanthine [3])	FACS-Seq fitted mean (log10) (hypoxanthine [4])
CGCGUA	0.477 ± 0.0013	1.95 ± 0.041	1.81 ± 0.067	0.659 ± 0.013
AGAUAC	0.757 ± 0.025	1.91 ± 0.052	1.74 ± 0.029	0.699 ± 0.065
AGAUAA	0.265 ± 0.036	1.88 ± 0.022	1.75 ± 0.042	-0.0706 ± 0.047
CGCCAG	0.462 ± 0.027	1.99 ± 0.051	1.84 ± 0.12	0.537 ± 0.0082
UGAUCG	0.52543 ± 0.00029	1.93 ± 0.02	1.81 ± 0.025	0.589 ± 0.045
UGCAGG	0.297 ± 0.033	1.8726 ± 0.0012	1.39 ± 0.073	0.49 ± 0.056
UGCAGU	-0.0358 ± 0.0051	1.906 ± 0.016	1.434 ± 0.0054	0.345 ± 0.15
UGCAGA	0.169 ± 0.0021	1.84 ± 0.032	1.43 ± 0.021	0.4015 ± 0.00097
GGCCGU	0.465 ± 0.071	1.95 ± 0.034	1.945 ± 0.014	0.502 ± 0.0071
AGCCUU	0.466 ± 0.071	1.97 ± 0.022	1.933 ± 0.0025	0.317 ± 0.091
AGCCUG	0.523 ± 0.04	1.92 ± 0.059	1.5724 ± 0.00079	0.67 ± 0.037
CGCAAA	0.57 ± 0.013	1.897 ± 0.0028	1.7 ± 0.022	0.491 ± 0.024
AGCAAU	0.645 ± 0.018	1.9127 ± 0.00078	1.8332 ± 0.00014	0.608 ± 0.03
AGCAAC	0.133 ± 0.046	1.91 ± 0.054	1.79 ± 0.043	0.1066 ± 0.00061
AGCAAG	0.616 ± 0.025	1.81 ± 0.024	1.45 ± 0.056	0.87 ± 0.096
GGCAUG	0.213 ± 0.11	1.88 ± 0.058	1.45 ± 0.042	0.621 ± 0.098
UGCUGA	0.117 ± 0.0063	1.92 ± 0.013	1.68 ± 0.021	0.0171 ± 0.11
UGAUAU	0.0888 ± 0.12	1.96 ± 0.028	1.776 ± 0.016	0.0923 ± 0.28
UGCGCG	0.142 ± 0.0059	1.94 ± 0.032	1.75 ± 0.035	0.383 ± 0.012
CGCGCC	0.276 ± 0.055	1.93 ± 0.021	1.96 ± 0.044	0.445 ± 0.033
UGCCUA	0.664 ± 0.022	1.94 ± 0.039	1.929 ± 0.0053	0.57 ± 0.049
UGCCUG	0.608 ± 0.0066	1.91 ± 0.1	1.73 ± 0.042	0.712 ± 0.07
UGCCUC	0.735 ± 0.008	2 ± 0.064	2.01 ± 0.023	0.659 ± 0.051
AGAUUC	0.691 ± 0.017	1.92 ± 0.051	1.92 ± 0.037	0.707 ± 0.069

Variant	FACS-Seq fitted mean (log10) (hypoxanthine [1])	normalized RNA/DNA level with ligand (log10) (hypoxanthine [2])	normalized RNA/DNA level without ligand (log10) (hypoxanthine [3])	FACS-Seq fitted mean (log10) (hypoxanthine [4])
GGCGCA	0.59 ± 0.026	1.977 ± 0.0052	1.893 ± 0.0039	0.6023 ± 0.0039
GGCAAC	-0.242 ± 0.05	1.947 ± 0.0067	1.86 ± 0.024	-0.0947 ± 0.011
GGCAAA	-0.106 ± 0.017	1.9638 ± 0.0011	1.83 ± 0.037	-0.0498 ± 0.0022
GGCAAU	-0.272 ± 0.047	1.92 ± 0.04	1.86 ± 0.024	-0.0445 ± 0.018
GGCAAG	0.564 ± 0.072	1.88 ± 0.028	1.47 ± 0.022	0.712 ± 0.075
AGCUAC	-0.583 ± 0.06	1.96 ± 0.058	1.778 ± 0.0088	-0.175 ± 0.051
CGAUGG	0.217 ± 0.024	1.89 ± 0.029	1.42 ± 0.087	0.628 ± 0.045
GGCGUG	0.107 ± 0.021	1.91 ± 0.088	1.52 ± 0.022	0.291 ± 0.076
UGCGUA	0.287 ± 0.015	1.92 ± 0.05	1.86 ± 0.032	0.413 ± 0.031
AGAGGA	0.5707 ± 0.0052	1.892 ± 0.016	1.6297 ± 0.00023	0.701 ± 0.028
AGAGGU	0.557 ± 0.061	1.9 ± 0.035	1.52 ± 0.032	0.802 ± 0.07
GGCGGA	0.416 ± 0.079	1.98 ± 0.043	1.837 ± 0.013	0.534 ± 0.03
UGCCGG	-0.14 ± 0.0069	1.938 ± 0.0072	1.71 ± 0.068	-0.119 ± 0.14
AGCGAA	0.534 ± 0.068	1.924 ± 0.017	1.6852 ± 0.00025	0.62 ± 0.014
AGCGAC	-0.228 ± 0.049	1.93 ± 0.043	1.787 ± 0.00037	0.298 ± 0.021
AGCGAG	0.352 ± 0.055	1.8 ± 0.031	1.36 ± 0.062	0.443 ± 0.043
AGCUUC	-0.1877 ± 0.00023	2.019 ± 0.0075	1.927 ± 0.016	-0.0634 ± 0.021
AGCUUG	0.486 ± 0.018	1.94 ± 0.036	1.59 ± 0.018	0.64 ± 0.031
CGAGGG	-0.0981 ± 0.041	1.8 ± 0.077	1.3 ± 0.047	0.0226 ± 0.19
CGAGGU	0.491 ± 0.077	1.96 ± 0.027	1.86 ± 0.019	0.625 ± 0.12
GGAGGA	-0.168 ± 0.034	1.934 ± 0.0025	1.64 ± 0.078	0.231 ± 0.0056
GGAGGU	0.54 ± 0.019	1.923 ± 0.013	1.779 ± 0.01	0.48 ± 0.021
AGCAUG	0.201 ± 0.012	1.87 ± 0.079	1.4892 ± 0.001	-0.275 ± 0.19
AGCAUA	0.318 ± 0.075	1.9 ± 0.044	1.82 ± 0.02	0.286 ± 0.19

Variant	FACS-Seq fitted mean (log10) (hypoxanthine [1])	normalized RNA/DNA level with ligand (log10) (hypoxanthine [2])	normalized RNA/DNA level without ligand (log10) (hypoxanthine [3])	FACS-Seq fitted mean (log10) (hypoxanthine [4])
AGCAUU	-0.328 ± 0.0053	1.92 ± 0.065	1.86 ± 0.057	-0.19 ± 0.0097
AGCGGG	0.579 ± 0.16	1.9573 ± 0.00092	1.754 ± 0.0053	0.732 ± 0.094
AGCGGA	0.427 ± 0.044	1.945 ± 0.0055	1.71 ± 0.036	0.456 ± 0.021
GGCGAU	0.679 ± 0.071	1.97 ± 0.062	1.9 ± 0.063	0.587 ± 0.0063
CGGAAG	0.266 ± 0.007	1.905 ± 0.011	1.734 ± 0.0046	0.361 ± 0.062
CGGAAU	0.0719 ± 0.0065	1.81 ± 0.052	1.42 ± 0.016	0.548 ± 0.059
CGGAAA	0.32 ± 0.016	1.87 ± 0.025	1.43 ± 0.051	0.587 ± 0.016
UGCUAU	0.535 ± 0.025	1.93 ± 0.023	1.88 ± 0.028	0.662 ± 0.05
UGAGCG	0.3069 ± 0.0029	1.9 ± 0.049	1.7 ± 0.043	0.323 ± 0.026
UGAGCU	0.136 ± 0.16	1.918 ± 0.018	1.904 ± 0.017	-0.0419 ± 0.064
UGAGCC	0.846 ± 0.017	2.003 ± 0.02	1.94 ± 0.051	0.805 ± 0.11
CGAUUU	0.4582 ± 0.0022	1.92 ± 0.089	1.847 ± 0.012	0.5218 ± 0.0046
CGAUUA	0.312 ± 0.038	1.9239 ± 0.001	1.64 ± 0.034	0.569 ± 0.13
CGAUUC	0.279 ± 0.048	1.976 ± 0.0063	1.89 ± 0.02	0.313 ± 0.0095
AGAUGG	-0.23 ± 0.04	1.84 ± 0.035	1.36 ± 0.019	0.0811 ± 0.0062
AGAUGU	0.466 ± 0.021	1.9 ± 0.037	1.56 ± 0.031	0.748 ± 0.053
AGAUGA	0.409 ± 0.022	1.93 ± 0.05	1.65 ± 0.034	0.591 ± 0.025
CGCUAG	0.118 ± 0.0022	1.89 ± 0.063	1.79 ± 0.051	0.183 ± 0.14
GGCUCA	0.301 ± 0.011	1.98 ± 0.031	1.91 ± 0.074	0.297 ± 0.024
UGCCCA	0.234 ± 0.013	1.944 ± 0.002	1.92 ± 0.043	-0.0574 ± 0.058
AGCUGA	0.203 ± 0.08	1.91 ± 0.043	1.74 ± 0.067	0.0306 ± 0.017
AGCUGC	0.448 ± 0.0077	2 ± 0.035	1.87 ± 0.076	0.755 ± 0.036
AGCUGG	-0.403 ± 0.022	1.91 ± 0.069	1.57 ± 0.035	-0.291 ± 0.096
AGCUCG	0.177 ± 0.0048	1.931 ± 0.0082	1.63 ± 0.11	0.448 ± 0.0069
